# In publication PMC6464244, “The fungal ribonuclease-like effector protein CSEP0064/BEC1054 represses plant immunity and interferes with degradation of host ribosomal RNA”:
# T1: CSEP0064/BEC1054 (Blumeria graminis, UniProt N1JJ94 22-118)
# T1 sequence: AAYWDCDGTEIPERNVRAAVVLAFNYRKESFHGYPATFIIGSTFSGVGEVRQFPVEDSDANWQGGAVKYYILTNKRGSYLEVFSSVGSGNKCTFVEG
# What was measured:
# [1] = molecular target: T1, CSEP0064/BEC1054; test: MST; up to 1 mM; no curve could be fitted; MST: 20 mM Tris pH 7.4, 150 mM NaCl, 0.05% Tween, 50 nM labelled protein; NMR: 50 uM protein, 50 mM Tris, 150 mM NaCl, 308 K; settings: protein: recombinant; tags: Trx-His6 removed by TEV; NT-647 NHS amine label for MST; 15N for NMR; single strand
# [2] = molecular target: T1, CSEP0064/BEC1054; test: NMR 1H-15N HSQC titration; fast exchange; small CSPs, saturation at ~50 molar equivalents; binding observed; settings: protein: recombinant; tags: Trx-His6 removed by TEV; NT-647 NHS amine label for MST; 15N for NMR; hairpin (predicted same fold as SRL RNA)
# [3] = molecular target: T1, CSEP0064/BEC1054; test: NMR 1H-15N HSQC titration; 8 mole equivalents; discrete CSPs, weak; settings: protein: recombinant; tags: Trx-His6 removed by TEV; NT-647 NHS amine label for MST; 15N for NMR; hairpin (SRL fold)
binder,measurement,setting,value
AAUUUAAUACGACUCACUAUAGG (ssRNA) [bacteriophage T7 promoter RNA (non-rRNA control)],binding result,[1],no binding
"ACCTGCTCAGTACGAGAGGAACCGCAGGT (structured_DNA, DNA version of SRL RNA) [SRL DNA oligonucleotide]",Kd,[2],> 10 µM
ACCUGCUCAGUACGAGAGGAACCGCAGGU (structured_RNA) [SRL RNA (barley 28S rRNA sarcin-ricin loop)],binding result,[3],binds
